Data set [1] has as its target T1, rhSmad1 MH1 (Homo sapiens, UniProt Q15797 1-143). In words: competition.
Data set [2] deals with T1, rhSmad1 MH1. The data set is described as follows: EMSA. On the technique in general: In EMSA bound probe runs differently from free probe, usually more slowly.
The target of data set [3] is T1, rhSmad1 MH1. In words: competition. The source holds these as a separate data set.

T1 sequence (Q15797 1-143): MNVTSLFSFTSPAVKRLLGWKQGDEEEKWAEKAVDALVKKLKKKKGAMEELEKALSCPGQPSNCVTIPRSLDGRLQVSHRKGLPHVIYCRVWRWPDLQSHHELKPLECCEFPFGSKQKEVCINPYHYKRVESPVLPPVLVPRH

B1: GC-SBE mut (dsDNA)
DNA 1: ACAGCTCTAGATCCAGATGGCCTGG
DNA 2: CCAGGCCATCTGGATCTAGAGCTGT
Turning to B1, the binding result with rhSmad1 MH1 [1] is listed as “no binding”.

B2: GC-SBE WT (dsDNA)
DNA 1: ACAGCTCTGGAGCCAGATGGCCTGG
DNA 2: CCAGGCCATCTGGCTCCAGAGCTGT
In the case of B2, the binding result with rhSmad1 MH1 [2] is “binds”.

B3: GC-SBE Cmut (GGCGCC) (dsDNA)
DNA 1: ACAGCTCTGGCGCCAGATGGCCTGG
DNA 2: CCAGGCCATCTGGCGCCAGAGCTGT
As for B3, in the data set with rhSmad1 MH1 [3], the binding result is listed as “binds”.

The values above are taken from paper PMC3203580.
